Experiments:
[1] = target: T1, cynomolgus CD137, cell-surface (cynomolgus, UniProt Q07011 24-255 (human entry)); assay: cell-based or functional assay
T1 chain: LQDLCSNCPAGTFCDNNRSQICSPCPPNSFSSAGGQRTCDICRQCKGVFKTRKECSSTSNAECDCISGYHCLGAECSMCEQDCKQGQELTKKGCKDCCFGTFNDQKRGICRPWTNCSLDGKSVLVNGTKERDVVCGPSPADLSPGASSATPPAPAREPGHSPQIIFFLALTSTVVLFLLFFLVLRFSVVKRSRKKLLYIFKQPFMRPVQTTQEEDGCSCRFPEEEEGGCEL

[2] = target: T2, biotinylated hPD-L1-Avi-His (Acro Biosystems, PD1-H82E5) (human, UniProt Q9NZQ7 19-238, biotinylated); assay: SPR, mAb^2 captured on Protein A chip, antigen in flow
T2 construct: bought; also called Human PD-L1-His; not shown: Avi and His tags of the bought product
Experimental: (§1) Briefly, the anti-human CD137/PD-L1 mAb², diluted in HBS-EP buffer (GE Healthcare, BR100188) at 2 μg/ml, were injected individually on flows cell 2, 3 and 4 of a Protein A chip (GE Healthcare, 29127556) at 30 μl/min to achieve a final response of approximately 110 RU. Two different recombinant human PD-L1 antigens were used i.e. hPD-L1-His-Avi (see Example 1.3 for antigen details) and biotinylated hPD-L1-Avi-His (Acrobiosystems, PD-1-H82E5). Human and cynomolgus PD-L1-His (Acrobiosystems, PD-1-C52H4) antigens, diluted in HBS-EP buffer, were injected on flow cell 1, 2, 3 or 4 as appropriate at a concentration range of 81 nM to 0.037 nM with 3-fold dilutions for 4 min at 75 μl/min and then allowed to dissociate in buffer for 10 min. Regeneration was achieved by injecting 10 mM glycine-HCL pH1.5 (GE Healthcare, Human Antibody Capture Kit, BR00356) for 30 sec at a rate of 30 μl/min. Subtracted data (flow cell 2−flow cell 1, flow cell 3−flow cell 1, or flow cell 4−flow cell 1) were analysed using BIAevaluation 3.2 Software (GE Healthcare) to identify binding using the model 1:1 binding with mass transfer, with refractive index (RI) constant 0.

[3] = target: T3, cPD-L1-His (Acro Biosystems, PD1-C52H4) (cynomolgus, UniProt Q9NZQ7 19-238 (human entry)); assay: as above
T3 construct: bought; also called Cyno PD-L1-His; Cynomolgus PD-L1-His; not shown: His tag of the bought product
Experimental: as §1

hCD137-mFc-Avi = target: T4, hCD137-mFc-Avi (human; mouse, UniProt Q07011 24-186, biotin on the Avi sequence where the biotinylated form was used); assay: SPR, mAb^2 captured by anti-human Fab, antigen in flow
T4 construct: also called human CD137-mFc-Avi; dimeric human CD137; not shown: mouse IgG2a Fc domain (mIgG2a Fc)
Experimental: (§2) The binding of the anti-human CD137/PD-L1 mAb² to recombinant dimeric human and cynomolgus CD137 antigens was also measured by SPR using a Biacore T200 processing unit (GE Healthcare).
(§3) Briefly, 20 μg/ml anti-human Fab antibody (GE Healthcare, Human Fab Capture kit 28958325) was coated on flow cells 1, 2, 3 and 4 of a Biacore sensor S chip CM5 (GE Healthcare, BR100530) achieving a final response of approximately 5000 RU. […] The recombinant dimeric antigens, human CD137-mFc-Avi or cynomolgus CD137-mFc-Avi (see Example 1.1 for antigen details) diluted in HBS-EP buffer, were injected on flow cell 1, 2, 3 or 4 as appropriate at a concentration range of 81 nM to 0.037 nM with 3-fold dilutions for 4 minutes at 70 μl/min and then allowed to dissociate in buffer for 10 minutes. Regeneration was achieved by injecting 10 mM glycine pH 2.1 (GE Healthcare, Human Fab Capture kit 28958325) for 60 seconds at a rate of 30 μl/min. Data analysis was performed as described in Example 9.1.

cCD137-mFc-Avi = target: T5, cCD137-mFc-Avi (cynomolgus; mouse); assay: as above
T5 construct: also called cynomolgus CD137-mFc-Avi; Cyno CD137-mFc-Avi; not shown: mouse IgG2a Fc domain (mIgG2a Fc)
T5 chain: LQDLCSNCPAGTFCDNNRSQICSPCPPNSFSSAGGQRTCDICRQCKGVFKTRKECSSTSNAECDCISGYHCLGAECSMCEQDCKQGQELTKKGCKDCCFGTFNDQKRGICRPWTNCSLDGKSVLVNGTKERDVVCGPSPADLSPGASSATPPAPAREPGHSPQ
Experimental: as §2, §3

[4] = target: Human FcRn (Acro Biosystems, FCM-H5286) (human, UniProt P55899 24-297; P61769 21-119); assay: SPR, mAb^2 immobilised, FcRn in flow, pH 6.0, steady state affinity; pH 6.0
Text: (§4) The neonatal Fc receptor (FcRn) binding is critical for antibody recycling (Martins et al., 2016). […] G1-AA/HeID1.3 was included as an isotype control IgG control lacking mutations in the CH3 domain.
(§5) Briefly, mAb² were individually coated on flow cell 2, 3 and 4 of Series S Sensor Chip CM5 (GE Healthcare, BR100530) to achieve a response of approximately 1000 RU. Flow cell 1 was activated/deactivated but left blank as a reference. Human FcRn (Acro Biosystems, FCM-H5286) or mouse FcRn (R&D systems, 9114-Fc) was dialysed and diluted in MHBS-EP⁺B pH 6.0 or pH 7.4 buffer (10 mM MES, FortéBio, 18-5026; 1×HBS-EP, GE Healthcare, BR100669; 0.1 mg/ml BSA, Sigma, A7906) and injected on flow cell 1, 2, 3 and 4 at 2000-3000 nM with 2-fold dilutions for 1 min at 80 μl/min and then allowed to dissociate in buffer for 3 min. […] Subtracted data (flow cell 2−flow cell 1, flow cell 3−flow cell 1, or flow cell 4−flow cell 1) was analysed using Biacore T200 Evaluation Software 2.0 to identify binding using the model steady state affinity.

[5] = target: T6, mouse FcRn (R&D systems, 9114-Fc) (mouse, UniProt Q61559 22-297; P01887 21-119, limits assumed); assay: as above
T6 sequence (looked up) 1: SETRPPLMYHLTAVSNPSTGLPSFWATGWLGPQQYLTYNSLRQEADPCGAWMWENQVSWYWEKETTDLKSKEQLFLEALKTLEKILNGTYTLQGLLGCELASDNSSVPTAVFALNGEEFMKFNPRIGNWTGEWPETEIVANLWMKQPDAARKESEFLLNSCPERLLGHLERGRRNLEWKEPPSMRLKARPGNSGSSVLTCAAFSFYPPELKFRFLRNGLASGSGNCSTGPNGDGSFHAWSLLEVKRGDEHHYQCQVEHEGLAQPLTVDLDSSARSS
T6 sequence (looked up) 2: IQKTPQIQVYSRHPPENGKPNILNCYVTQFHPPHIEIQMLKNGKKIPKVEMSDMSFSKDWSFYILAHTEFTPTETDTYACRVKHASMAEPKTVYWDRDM
Text: as §4, §5

[6] = target: T7, human CD137, cell-surface (human, UniProt Q07011 24-255); assay: cell-based or functional assay
[7] = target: T7, human CD137, cell-surface; assay: cell-based or functional assay; remark: listed apart in the source
[8] = target: T7, human CD137, cell-surface; assay: cell-based or functional assay; remark: listed apart in the source
[9] = target: T7, human CD137, cell-surface; assay: cell-based or functional assay; remark: listed apart in the source
[10] = target: T7, human CD137, cell-surface; assay: cell-based or functional assay; remark: listed apart in the source
[11] = target: T2, biotinylated hPD-L1-Avi-His (Acro …); assay: SPR, antibody captured on Protein A chip, antigen in flow
[12] = target: T3, cPD-L1-His (Acro Biosystems, PD1-C52H4); assay: as above
[13] = target: human PD-L1, cell-surface (human, UniProt Q9NZQ7 19-290); assay: cell-based or functional assay
Chain of human PD-L1, cell-surface (Q9NZQ7 19-290): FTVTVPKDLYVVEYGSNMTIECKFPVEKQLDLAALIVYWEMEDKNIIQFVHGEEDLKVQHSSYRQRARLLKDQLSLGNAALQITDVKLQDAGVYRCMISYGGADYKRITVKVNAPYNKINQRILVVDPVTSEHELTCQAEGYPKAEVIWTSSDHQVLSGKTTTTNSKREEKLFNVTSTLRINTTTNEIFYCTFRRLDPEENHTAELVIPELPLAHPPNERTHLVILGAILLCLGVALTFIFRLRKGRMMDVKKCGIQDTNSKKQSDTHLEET

T3 sequence (Q9NZQ7 other isoform, or with tags, fused parts or gaps): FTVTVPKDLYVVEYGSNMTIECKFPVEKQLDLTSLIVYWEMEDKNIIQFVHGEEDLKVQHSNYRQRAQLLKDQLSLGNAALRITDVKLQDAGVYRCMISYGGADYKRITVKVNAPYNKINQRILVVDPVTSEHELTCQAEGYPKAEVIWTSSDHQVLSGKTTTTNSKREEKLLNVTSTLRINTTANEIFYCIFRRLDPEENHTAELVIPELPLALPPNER
T2 sequence (Q9NZQ7 19-238): as the sequence (Q9NZQ7 other isoform, or with tags, fused parts or gaps) above, with T33A, S34A, N62S, Q68R, R82Q, L173F, A185T, I192T, L215H counted along it
T4 sequence (Q07011 24-186): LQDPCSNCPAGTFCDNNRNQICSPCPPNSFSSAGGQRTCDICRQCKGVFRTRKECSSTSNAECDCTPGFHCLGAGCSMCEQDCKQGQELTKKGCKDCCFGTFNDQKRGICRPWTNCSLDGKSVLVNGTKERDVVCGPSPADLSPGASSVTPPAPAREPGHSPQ
Chain of Human FcRn (Acro Biosystems, FCM-H5286) (P55899 24-297 limits assumed, chain 1 of 2): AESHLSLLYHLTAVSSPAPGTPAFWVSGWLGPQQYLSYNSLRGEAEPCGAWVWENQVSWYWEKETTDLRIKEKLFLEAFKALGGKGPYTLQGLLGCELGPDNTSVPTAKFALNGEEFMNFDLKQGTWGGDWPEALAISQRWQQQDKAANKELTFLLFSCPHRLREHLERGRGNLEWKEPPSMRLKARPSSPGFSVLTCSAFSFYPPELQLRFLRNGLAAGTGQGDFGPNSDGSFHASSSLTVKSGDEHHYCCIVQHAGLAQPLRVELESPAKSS
Chain of Human FcRn (Acro Biosystems, FCM-H5286) (P61769 21-119 limits assumed, chain 2 of 2): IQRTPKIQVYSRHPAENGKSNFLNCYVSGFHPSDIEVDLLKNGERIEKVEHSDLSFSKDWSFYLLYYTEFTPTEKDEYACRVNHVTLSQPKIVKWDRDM

| Binder | EC50 (nM) (crosslinked), mIL-2 release, DO11.10.cCD137 with HEK.cyPD-L1 [1] | Emax (pg/ml) (crosslinked), mIL-2 release, DO11.10.cCD137 with HEK.cyPD-L1 [1] [pg/mL] | Kd [2] [nM] | Kd [3] [nM] | Kd (hCD137-mFc-Avi) [nM] | Kd (cCD137-mFc-Avi) [nM] | Kd [4] [nM] | Kd [5] [nM] | other results |
| --- | --- | --- | --- | --- | --- | --- | --- | --- | --- |
| FS22-172-003-AA/lam-G02v3 (bispecific antibody, human IgG1, L234A L235A, see recheck) heavy: EVQLVQSGAEVKRPGASVKVSCKASGYTFTSYGISWVRQAPGQGLEWMGWISAYSGGTNYAQKLQGRVTMTTDTSTSTAYMELRSLRSDDTAVYYCARDLFPTIFGVSYYYYWGQGTLVTVSSASTKGPSVFPLAPSSKSTSGGTAALGCLVKDYFPEPVTVSWNSGALTSGVHTFPAVLQSSGLYSLSSVVTVPSSSLGTQTYICNVNHKPSNTKVDKKVEPKSCDKTHTCPPCPAPEAAGGPSVFLFPPKPKDTLMISRTPEVTCVVVDVSHEDPEVKFNWYVDGVEVHNAKTKPREEQYNSTYRVVSVLTVLHQDWLNGKEYKCKVSNKALPAPIEKTISKAKGQPREPQVYTLPPSRDELPYIIPPYNQVSLTCLVKGFYPSDIAVEWESNGQPENNYKTTPPVLDSDGSFFLYSKLTVGADRWLEGNVFSCSVMHEALHNHYTQKSLSLSPG light: QSALTQPASVSGSPGQSITISCTGTSSDVGGYNYVSWYQQFPGKAPKLMIFEVTNRPSGVSDRFSGSKSDNTASLTISGLQAEDEAEYYCSSFKRGSTLVVFGGGTKLTVLGQPAAAPSVTLFPPSSEELQANKATLVCLISDFYPGAVTVAWKADSSPVKAGVETTTPSKQSNNKYAASSYLSLTPEQWKSHRSYSCQVTHEGSTVEKTVAPTECS | 0.08 | 12300 | 1.54 | 1.91 | 1.3 | 2.2 | 1220 | 167 | – |
| G1-AA/20H4.9 (antibody, V domains shown) VH: QVQLQQWGAGLLKPSETLSLTCAVYGGSFSGYYWSWIRQSPEKGLEWIGEINHGGYVTYNPSLESRVTISVDTSKNQFSLKLSSVTAADTAVYYCARDYGPGNYDWYFDLWGRGTLVTVSS VL: EIVLTQSPATLSLSPGERATLSCRASQSVSSYLAWYQQKPGQAPRLLIYDASNRATGIPARFSGSGSGTDFTLTISSLEPEDFAVYYCQQRSNWPPALTFGGGTKVEIKR | – | – | – | – | – | – | – | – | EC50, hIL-2 release, primary human CD8+ T cells, crosslinked with anti-hCH2 [6]: 0.5 nM; EC50 (nM), hIL-2 release, CD8+ T cells, donor 171115A, HEK.hPD-L1 assay, crosslinked with anti-hCH2 [7]: 0.21 nM; EC50 (nM), hIL-2 release, CD8+ T cells, donor 171115A, MDA-MB-231 assay, crosslinked with anti-hCH2 [7]: 0.31 nM; EC50 (nM), hIL-2 release, CD8+ T cells, donor 171115B, HEK.hPD-L1 assay, crosslinked with anti-hCH2 [7]: 0.29 nM; EC50 (nM), hIL-2 release, CD8+ T cells, donor 171115B, MDA-MB-231 assay, crosslinked with anti-hCH2 [7]: 0.28 nM; EC50 (nM), IFN-γ release, human MLR, crosslinked with anti-human CH2 [8]: 1.9 nM; Emax (pg/ml), IFN-γ release, CEFT antigen recall assay, crosslinked with anti-human CH2 (EC50 N/A) [9]: 13000 pg/mL; EC50 (nM), IFN-γ release, CEF antigen recall assay, crosslinked with anti-human CH2 [10]: 0.33 nM |
| G1-AA/G12v2 (antibody, human IgG1, kappa, L234A L235A, V domains shown, anti-PD-L1 IgG1 with LALA) VH: EVQLVQSGAEVKRPGASVKVSCKASGYTFTSYGISWVRQAPGQGLEWMGWISAYSGGTNYAQKLQGRVTMTTDTSTSTAYMELRSLRSDDTAVYYCARDLFPTIFGVSYYYYWGQGTLVTVSS VL: DIQMTQSPSTLSASVGDRVTITCRASQSISGRLAWYQQKPGKAPNLLIYEASNLESGVPSRFSGSGSGTEFTLTISSLQPEDFATYYCQQSYSWPRTFGQGTKVEIKR | – | – | – | – | – | – | – | – | Kd [11]: 0.44 nM; Kd [12]: 0.75 nM |
| FS22-053-008-AA/E12v2 (bispecific antibody, human IgG1, kappa, L234A L235A) heavy: EVQLVQSGAEVKRPGASVKVSCKASGYPFTSYGISWVRQAPGQGLEWMGWISAYSGGTNYAQKLQGRVTMTTDTSTSTAYMELRSLRSDDTAVYYCARDLFPTIFGVSYYYYWGQGTLVTVSSASTKGPSVFPLAPSSKSTSGGTAALGCLVKDYFPEPVTVSWNSGALTSGVHTFPAVLQSSGLYSLSSVVTVPSSSLGTQTYICNVNHKPSNTKVDKKVEPKSCDKTHTCPPCPAPEAAGGPSVFLFPPKPKDTLMISRTPEVTCVVVDVSHEDPEVKFNWYVDGVEVHNAKTKPREEQYNSTYRVVSVLTVLHQDWLNGKEYKCKVSNKALPAPIEKTISKAKGQPREPQVYTLPPSRDELNPPYLFSNQVSLTCLVKGFYPSDIAVEWESNGQPENNYKTTPPVLDSDGSFFLYSKLTVDYWRWLEGNVFSCSVMHEALHNHYTQKSLSLSPG light: DIQMTQSPSTLSASVRDRVIITCRASQSIGNRLAWYQHKPGKAPKLLIYEASTSETGVPSRFSGSGSGTDFTLTISSLQPEDFATYYCQQSYSTPYTFGQGTKLEIKRTVAAPSVFIFPPSDEQLKSGTASVVCLLNNFYPREAKVQWKVDNALQSGNSQESVTEQDSKDSTYSLSSTLTLSKADYEKHKVYACEVTHQGLSSPVTKSFNRGEC | 0.08 | 9010 | 0.19 | 0.25 | 2.6 | 0.6 | 998 | 177 | EC50 (nM), hIL-2 release, CD8+ T cells, donor 171115A, HEK.hPD-L1 XL [7]: 0.1 nM; EC50 (nM), hIL-2 release, CD8+ T cells, donor 171115A, MDA-MB-231 XL [7]: 0.01 nM; EC50 (nM), hIL-2 release, CD8+ T cells, donor 171115B, HEK.hPD-L1 XL [7]: 0.11 nM; EC50 (nM), hIL-2 release, CD8+ T cells, donor 171115B, MDA-MB-231 XL [7]: 0.02 nM; EC50 (nM), IFN-γ release, human MLR [13]: 0.04 nM; Emax (pg/ml), IFN-γ release, human MLR [13]: 3130 pg/mL |
